Measured values: US20260015426A1

Legend:
Assay in all cases: ELISA, mAb at 10 nM
[1] = biological target: hu-M-IL1RAP-D1 construct, positions S21-Q133 (human)
[2] = biological target: hu-M-IL1RAP-D1D2 construct, positions S21-P237 (human)
[3] = biological target: hu-M-IL1RAP-D3 construct, positions K238-T367 (human)
Chain of hu-M-IL1RAP-D3 construct, positions K238-T367 (human) (chain, as listed by the source limits assumed): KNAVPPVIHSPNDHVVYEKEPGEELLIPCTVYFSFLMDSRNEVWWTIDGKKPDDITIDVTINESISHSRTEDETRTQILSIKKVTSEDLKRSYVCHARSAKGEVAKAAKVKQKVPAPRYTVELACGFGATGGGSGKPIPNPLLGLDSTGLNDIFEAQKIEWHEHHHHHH

Chain of hu-M-IL1RAP-D1 construct, positions S21-Q133 (human) (chain, as listed by the source limits assumed): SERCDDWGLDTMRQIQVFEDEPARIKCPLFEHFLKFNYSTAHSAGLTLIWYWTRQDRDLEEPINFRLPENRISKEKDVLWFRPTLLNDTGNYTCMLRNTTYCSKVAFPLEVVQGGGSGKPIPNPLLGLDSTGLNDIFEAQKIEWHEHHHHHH
Chain of hu-M-IL1RAP-D1D2 construct, positions S21-P237 (human) (chain, as listed by the source limits assumed): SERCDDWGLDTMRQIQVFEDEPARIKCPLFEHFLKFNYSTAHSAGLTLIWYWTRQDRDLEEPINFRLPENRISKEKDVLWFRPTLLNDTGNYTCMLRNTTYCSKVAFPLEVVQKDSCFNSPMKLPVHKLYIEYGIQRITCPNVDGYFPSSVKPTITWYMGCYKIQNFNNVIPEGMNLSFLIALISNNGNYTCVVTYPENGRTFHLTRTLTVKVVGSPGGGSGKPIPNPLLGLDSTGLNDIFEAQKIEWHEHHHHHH

Binder | A450 [1] | A450 [2] | A450 [3]
11C5(Hy) (purified mAb from the 11C5 hybridoma) (antibody, V domains shown) VH: EVQLVESGGGLVKPGGSLKLSCAASGFTFSNYAMSWVRQTPEKRLEWVATVTEGGDYNYCLDDVKGRFTISRDNANDNLYLQMSHLKSEDSARYYCARDRWPYFFDYWGQGTTLTVSS VL: DIQMTQSPASLSVSVGETVTITCRASENIYSNLAWYQQKQGRSPQLLVYGAKNLADGVPSRFSGSGSGTQYSLNINSLQSEDFGTYYCQHFWTTPRTFGGGTKLEIK | 0.048 A450 | 0.048 A450 | –
9D5 (purified mAb from hybridoma 9D5) (antibody, V domains shown) VH: QVQLQQSGAELARPGASVKFSCKASGYTFTSYWMQWVKQRPGQGLEWIGTIYPGDGNTRYTQKFKGKATLTADKSSSTAYMQLSGLASEDSAVYYCARGYFGNLVFDVWGAGTTVTVSS VL: DIKMTQSPSSMYASLGERVTITCKASQDINTYLSWFLQKPGKSPKTLIYRADRLVDGVPSRFSGGGSGQDYSLTISSLEYEDLGIYYCLQYDEFPYTFGSGTKLEIK | 0.047 A450 | – | 0.045 A450
13D8 (purified mAb from hybridoma 13D8) (antibody, V domains shown) VH: EVQLVESGGGLVKPGGSLKLSCTASGFTFSNYAMSWVRQTPEKRLEWVATISDGGNYTYYPDNVKGRFTISRDIAKNNLYLQMSHLKSEDTAMYYCARDRWPYFFDFWGQGTTLTVSS VL: DIQMTQSPASLSVSVGETVTITCRASDNIYSNLAWYQEKQGKSPQLLVYGATNLADGVPSRFSGSGSGTQYSLKINSLQSEDFGSYYCQHFWTTPRSFGGGTKLELK | 0.046 A450 | 0.044 A450 | –
10A11 (purified mAb from hybridoma 10A11) (antibody, V domains shown) VH: EVQLQQSGAELVKPGASVRLSCTSSGFNIKDYFMHWVKQRTEQGLEWVGRIDPEDGETQYAPNFQDKATITVDTSSNTVYLQLSSLTSEDTAVYYCFRPLYYGNSPWFAYWGQGTLVTVSP VL: DIQMTQTTSSLSASLGDRVTISCRASQDISNYLNWYQQKPDGTVKLLIYYTSTLHSGVPSRFSGSGSGTDYSLTISNLEPEDIATYYCHQYSKFPPTFGSGTKLEIK | 0.046 A450 | 0.046 A450 | –
8H1 (purified mAb from hybridoma 8H1) (antibody, V domains shown) VH: QVQLQQSGPELVKSGASVRISCKASGYAFSGSWMNWVKQRPGKGLEWIGRIYPGDGNTNYNGKFKDKATLTADKSSSTAFMQLSSLTSEDSAVYFCARDYYLFYFDYWGQGTTLTVSS VL: NIVMTQTPKFLPVAAEDRVIITCKASQDVSNEVAWYQQKPGQSPKLLMYYASNRYTGVPDRFTGSGSGTDFTFTISSVQVEDLAVYFCQQHYSSPLTFGAGTKLELK | 0.045 A450 | – | 0.045 A450
